B1: YKL051W (protein, UniProt P35735 1-353, looked up)
Protein SFK1: MIQFKSPGNWLFIVPWIAFIPWYGMLIAMLICWASQGHPIYWFMHSEQFPVYISDIGATNLRPLFISCAGWQGLGYVITVALEFFQRSGYLPFQLKKKDPSISDSTSYAEKLHSGKYLMPPYYTKDERNLIFAAFVLGSIGELALLFSSIFSTALYHRVHIAMVSVFVVFMFLSTCCLIAEYFLMGRHYASVHPLASPHFNPQSSEKSFNQDYNTVDELPWYKWKGHVWNKFTISATLKVIWLTLAVVWAICFGAINDRSKSACFEWLLAFWFGIIFMILSADFYLGGRYRQSRYFNHVESFSGYYKYDKALGLYHSEDVLPSDDNAGVIATETASSNIYNNSSSNESIQVVV
B2: YBR200W (protein, UniProt P29366 1-551, looked up)
Bud emergence protein 1: MLKNFKLSKRDSNGSKGRITSADISTPSHDNGSVIKHIKTVPVRYLSSSSTPVKSQRDSSPKNRHNSKDITSPEKVIKAKYSYQAQTSKELSFMEGEFFYVSGDEKDWYKASNPSTGKEGVVPKTYFEVFDRTKPSSVNGSNSSSRKVTNDSLNMGSLYAIVLYDFKAEKADELTTYVGENLFICAHHNCEWFIAKPIGRLGGPGLVPVGFVSIIDIATGYATGNDVIEDIKSVNLPTVQEWKSNIARYKASNISLGSVEQQQQQSITKPQNKSAKLVDGELLVKASVESFGLEDEKYWFLVCCELSNGKTRQLKRYYQDFYDLQVQLLDAFPAEAGKLRDAGGQWSKRIMPYIPGPVPYVTNSITKKRKEDLNIYVADLVNLPDYISRSEMVHSLFVVLNNGFDREFERDENQNNIKTLQENDTATFATASQTSNFASTNQDNTLTGEDLKLNKKLSDLSLSGSKQAPAQSTSGLKTTKIKFYYKDDIFALMLKGDTTYKELRSKIAPRIDTDNFKLQTKLFDGSGEEIKTDSQVSNIIQAKLKISVHDI
B3: YCR002C (protein, UniProt P25342 1-322, looked up)
Cell division control protein …: MDPLSSVQPASYVGFDTITNQIEHRLLKKGFQFNIMVVGQSGLGKSTLINTLFASHLIDSATGDDISALPVTKTTEMKISTHTLVEDRVRLNINVIDTPGFGDFIDNSKAWEPIVKYIKEQHSQYLRKELTAQRERFITDTRVHAILYFLQPNGKELSRLDVEALKRLTEIANVIPVIGKSDTLTLDERTEFRELIQNEFEKYNFKIYPYDSEELTDEELELNRSVRSIIPFAVVGSENEIEINGETFRGRKTRWSAINVEDINQCDFVYLREFLIRTHLQDLIETTSYIHYEGFRARQLIALKENANSRSSAHMSSNAIQR
B4: YDR379W (protein, UniProt Q06407 1-1009, looked up)
Rho-type GTPase-activating …: MSADPINDQSSLCVRCNKSIASSQVYELESKKWHDQCFTCYKCDKKLNADSDFLVLDIGTLICYDCSDKCTNCGDKIDDTAIILPSSNEAYCSNCFRCCRCSNRIKNLKYAKTKRGLCCMDCHEKLLRKKQLLLENQTKNSSKEDFPIKLPERSVKRPLSPTRINGKSDVSTNNTAISKNLVSSNEDQQLTPQVLVSQERDESSLNDNNDNDNSKDREETSSHARTVSIDDILNSTLEHDSNSIEEQSLVDNEDYINKMGEDVTYRLLKPQRANRDSIVVKDPRIPNSNSNANRFFSIYDKEETDKDDTDNKENEIIVNTPRNSTDKITSPLNSPMAVQMNEEVEPPHGLALTLSEATKENNKSSQGIQTSTSKSMNHVSPITRTDTVEMKTSTSSSTLRLSDNGSFSRPQTADNLLPHKKVAPSPNKKLSRSFSLKSKNFVHNLKSKTSEMLDPKHPHHSTSIQESDTHSGWGVSSTHTNIRKSKAKKNPVSRGQSDSTIYNTLPQHGNFTVPEFNHKKAQSSLGSISKKQNSNDTATNRRINGSFTSSSSGHHIAMFRTPPLESGPLFKRPSLSSESAHHRSSSLQTSRSTNALLEDDSTKVDATDESATSLEKDFYFTELTLRKLKLDVRELEGTKKKLLQDVENLRLAKERLLNDVDNLTREKDKQSASSRESLEQKENIATSITVKSPSSNSDRKGSISNASPKPRFWKIFSSAKDHQVGDLESQQRSPNSSSGGTTNIAQKEISSPKLIRVHDELPSPGKVPLSPSPKRLDYTPDGSHLYGSSLQARCAYEKSTVPIIIRCCIDRIEKDDIGLNMEGLYRKSGSQTLVEEIENEFAQNNSLHSDTLSPKLNALLNQDIHAVASVLKRYLRKLPDPVLSFSIYDALIDLVRNNQLIERLPLNNDKFLDSPQKVTIYEMVLKSLLEIFKILPVEHQEVLKVLAAHIGKVRRCSERNLMNLHNLSLVFAPSLIHDFDGEKDIVDMKERNYIVEFILGNYRDIFKQA
B5: YBL085W (protein, UniProt P38041 1-980, looked up)
BEM1-interacting protein 1: MSLEGNTLGKGAKSFPLYIAVNQYSKRMEDELNMKPGDKIKVITDDGEYNDGWYYGRNLRTKEEGLYPAVFTKRIAIEKPENLHKSPTQESGNSGVKYGNLNDSASNIGKVSSHQQENRYTSLKSTMSDIDKALEELRSGSVEQEVSKSPTRVPEVSTPQLQDEQTLIQEKTRNEENTTHDSLFSSTADLNLSSESLKNISKSNISTKSLEPSSESVRQLDLKMAKSWSPEEVTDYFSLVGFDQSTCNKFKEHQVSGKILLELELEHLKELEINSFGIRFQIFKEIRNIKSAIDSSSNKLDADYSTFAFENQAAQLMPAATVNRDEIQQQISSKCNKLSSESSDRKSSSVTTELQRPSSVVVNPNFKLHDPAEQILDMTEVPNLFADKDIFESPGRAPKPPSYPSPVQPPQSPSFNNRYTNNNARFPPQTTYPPKNKNPTVYSNGLIPNSSTSSDNSTGKFKFPAMNGHDSNSRKTTLTSATIPSINTVNTDESLPAISNISSNATSHHPNRNSVVYNNHKRTESGSSFVDLFNRISMLSPVKSSFDEEETKQPSKASRAVFDSARRKSSYGHSRDASLSEMKKHRRNSSILSFFSSKSQSNPTSPTKQTFTIDPAKMTSHSRSQSNSYSHARSQSYSHSRKHSLVTSPLKTSLSPINSKSNIALAHSETPTSSNNKEAVSQPSEGKHKHKHKHKSKHKHKNSSSKDGSSEEKSKKKLFSSTKESFVGSKEFKRSPSELTQKSTKSILPRSNAKKQQTSAFTEGIRSITAKESMQTADCSGWMSKKGTGAMGTWKQRFFTLHGTRLSYFTNTNDEKERGLIDITAHRVLPASDDDRLISLYAASLGKGKYCFKLVPPQPGSKKGLTFTEPRVHYFAVENKSEMKAWLSAIIKATIDIDTSVPVISSYATPTIPLSKAQTLLEEARLQTQLRDAEEEEGRDQFGWDDTQNKRNSNYPIEQDQFETSDYLESSAFEYPGGRL

system: BEM1-2; assay: DHFR-PCA on solid medium, bait BEM1-2 (Fig. 1B); assay type: cell-based, Saccharomyces cerevisiae; conditions: bait BEM1-2, label = prey; 2-8 replicates
Text: (§1) Supplement 41467_2021_21873_MOESM8_ESM.xlsx, sheet "Fig1B" | column: medsize; medrep; Ratio; Score

| Molecule | medrep (log2 median colony size normalized to plate background, PCA score) |
| --- | --- |
| B1 | 1.764 |
| B2 | 1.887 |
| B3 | 3.007 |
| B4 | 2.957 |
| B5 | 2.78 |

same assay, conditions: bait BEM1-2, label = prey; only significant differences showed; PPIs completely lost have a ratio of 0.1 and the gained PPIs 2.5

| Molecule | Ratio (SH3-deleted/WT medrep) |
| --- | --- |
| B1 | 0.482 |
| B2 | 0.4478 |
| B3 | 0.1 |
| B4 | 0.1 |
| B5 | 0.1 |

system: BOI1; assay: DHFR-PCA on solid medium, bait BOI1 (Fig. 1B); assay type: cell-based, Saccharomyces cerevisiae; conditions: bait BOI1, label = prey; 3-8 replicates
Text: as §1

| Molecule | medrep (log2 median colony size normalized to plate background, PCA score) |
| --- | --- |
| B1 | 2.409 |
| B2 | 3.166 |
| B3 | 1.419 |
| B4 | 1.407 |
| B5 | 1.7279 |

same assay, conditions: bait BOI1, label = prey; only significant differences showed; PPIs completely lost have a ratio of 0.1 and the gained PPIs 2.5

| Molecule | Ratio (SH3-deleted/WT medrep) |
| --- | --- |
| B1 | 1.668 |
| B3 | 0.1 |
| B4 | 2.5 |

system: BOI2; assay: DHFR-PCA on solid medium, bait BOI2 (Fig. 1B); assay type: cell-based, Saccharomyces cerevisiae; conditions: bait BOI2, label = prey; 3-8 replicates
Text: as §1

| Molecule | medrep (log2 median colony size normalized to plate background, PCA score) |
| --- | --- |
| B1 | 3.168 |
| B2 | 4.509 |
| B3 | 1.509 |
| B4 | 2.382 |
| B5 | 3.465 |

system: ABP1; assay: DHFR-PCA on solid medium, bait ABP1 (Fig. 1B); assay type: cell-based, Saccharomyces cerevisiae; conditions: bait ABP1, label = prey; 2-4 replicates
Text: as §1

| Molecule | medrep (log2 median colony size normalized to plate background, PCA score) |
| --- | --- |
| B2 | 1.73 |
| B3 | 2.496 |

same assay, conditions: bait ABP1, label = prey; only significant differences showed; PPIs completely lost have a ratio of 0.1 and the gained PPIs 2.5

| Molecule | Ratio (SH3-deleted/WT medrep) |
| --- | --- |
| B2 | 2.5 |

system: BBC1; assay: DHFR-PCA on solid medium, bait BBC1 (Fig. 1B); assay type: cell-based, Saccharomyces cerevisiae; conditions: bait BBC1, label = prey; 2-4 replicates
Text: as §1

| Molecule | medrep (log2 median colony size normalized to plate background, PCA score) |
| --- | --- |
| B1 | 4.283 |

system: BEM1-1; assay: DHFR-PCA on solid medium, bait BEM1-1 (Fig. 1B); assay type: cell-based, Saccharomyces cerevisiae; conditions: bait BEM1-1, label = prey; 2-8 replicates
Text: as §1

| Molecule | medrep (log2 median colony size normalized to plate background, PCA score) |
| --- | --- |
| B1 | 3.661 |
| B2 | 4.2138 |
| B3 | 3.007 |
| B4 | 2.957 |
| B5 | 1.5623 |

same assay, conditions: bait BEM1-1, label = prey; only significant differences showed; PPIs completely lost have a ratio of 0.1 and the gained PPIs 2.5

| Molecule | Ratio (SH3-deleted/WT medrep) |
| --- | --- |
| B1 | 0.1 |
| B5 | 0.5621 |
